# Reference: doi:10.1101/099705
# Values joined by “and” are separate entries in the source; they are usually repeats but may differ in a detail not shown here. Equal entries are not always repeated. Where two headings read alike, the source gives them in different places.
# B1: TbMP63-OB (domain or fragment)
# chain: SAIGASWAETELIPHAQCVSNITIVGRVLDVSQASENVSHVTVFVEGERSGEEETLTLCCFGEVSQKIRGTLKRNATIFASGTLRLHPVYEASNNKYYVSPVVHVSMPTGTLAVIT
# What was measured:
# [1] = target: TbMP81-FL (T. brucei (strain Lister 427)); assay: SEC
# [2] = target: TbMP42-OB (T. brucei (strain Lister 427)); assay: SEC
# [3] = target: TbMP18-FL (T. brucei (strain Lister 427)); assay: SEC
# [4] = target: TbMP81-OB (T. brucei (strain Lister 427)); assay: SEC
# [5] = target: TbMP42-FL (T. brucei (strain Lister 427)); assay: SEC
# [6] = target: TbMP24-OB (T. brucei (strain Lister 427)); assay: SEC
# [7] = target: TbMP18-FL (T. brucei (strain Lister 427))
# [8] = target: TbMP18-FL (T. brucei (strain Lister 427)); assay: SEC; remark: listed apart in the source
molecule,measurement,setting,value
TbMP81-FL (natural protein),stoichiometry N,[1],2
TbMP42-OB (domain or fragment),stoichiometry N,[2],3
TbMP18-FL (natural protein),stoichiometry N,[3],4
TbMP81-OB (domain or fragment),stoichiometry N,[4],2
TbMP42-FL (natural protein),stoichiometry N,[5],3
TbMP24-OB (domain or fragment),stoichiometry N (TbMP24-OB:TbMP18-FL (molar ratio)),[3],2
same,stoichiometry N,[6],3
TbMP24-FL (natural protein),stoichiometry N (TbMP24-FL:TbMP18-FL (molar ratio)),[3],2 and 1.5
same,stoichiometry N (TbMP24-FL:TbMP18-FL (molar ratio)),[7],1.1
B1,stoichiometry N (TbMP63-OB:TbMP18-FL (molar ratio)),[8],1 and 1.5
same,stoichiometry N (TbMP63-OB:TbMP18-FL (molar ratio)),[7],0.67
